Source: the supplement of paper PMC10567573

B1: ZBED3 (parent)
chain: GPGFHAGTSALWRHLRSAHRRELE
B2: TRAF3IP2 (parent)
chain: KEHVPTWLQNTHVYSWPKNKKNIL

Variants of: B1
Experiment: protein stability index of a GFP-peptide fusion (GPS, HEK-293T) (PSI 1-6); higher = more stable
Conditions: c terminus: a fixed tail appended
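Note: lentivirally expressed fusions sorted by FACS into six bins by GFP to DsRed ratio, PSI derived from sequencing read proportions per bin multiplied by bin number.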

Row | Variant | protein stability index
1 | R20T | 1.92
2 | R20M | 2.17
3 | R20A | 1.82
4 | R20L | 1.59
5 | R20S | 1.86
6 | R20W | 2.83
7 | R20E | 2.08
8 | R20P | 2.54
9 | R20D | 2.01
10 | R20C | 2.27
11 | R20G | 2.23
12 | R20F | 2.36
13 | R20Q | 2.31
14 | R20K | 2.54
15 | R20Y | 1.62
16 | R20V | 2.06
17 | R20N | 1.4
18 | R20H | 1.37
19 | R20I | 1.74
20 | R21T | 2.49
21 | R21I | 1.97
22 | R21Y | 2.14
23 | R21Q | 2.52
24 | R21C | 4.08
25 | R21D | 2.35

Row | Variant | protein stability index
26 | R21E | 2.33
27 | R21L | 1.77
28 | R21H | 1.73
29 | R21A | 1.7
30 | R21P | 1.95
31 | R21W | 2.07
32 | R21V | 1.53
33 | R21M | 1.9
34 | R21F | 1.02
35 | R21G | 1.75
36 | R21S | 1.84
37 | R21K | 2.51
38 | R21N | 1.77
39 | R16T | 2.23
40 | R16L | 1.81
41 | R16I | 2.12
42 | R16A | 2.45
43 | R16M | 2.97
44 | R16E | 2.41
45 | R16V | 1.84
46 | R16S | 2.21
47 | R16F | 2.07
48 | R16Y | 1.75
49 | R16N | 2.34
50 | R16Q | 2.33

Row | Variant | protein stability index
51 | R16K | 2.41
52 | R16D | 2.25
53 | R16W | 1.66
54 | R16P | 2.33
55 | R16C | 1.62
56 | R16G | 1.73
57 | R16H | 2.17
58 | L23T | 1.97
59 | L23Q | 2.13
60 | L23K | 2.79
61 | L23G | 2.32
62 | L23A | 2.83
63 | L23Y | 2.42
64 | L23P | 1.98
65 | L23N | 2.03
66 | L23W | 1.88
67 | L23D | 1.95
68 | L23C | 2.14
69 | L23I | 2.19
70 | L23H | 2.37
71 | L23E | 2.07
72 | L23F | 2.11
73 | L23M | 2.32
74 | L23V | 1.92
75 | L23R | 2.91

Row | Variant | protein stability index
76 | L23S | 2.36
77 | L15A | 1.93
78 | L15S | 2.21
79 | L15N | 2.57
80 | L15H | 2.34
81 | L15M | 2.7
82 | L15W | 2.7
83 | L15T | 2.05
84 | L15I | 2.3
85 | L15E | 1.76
86 | L15G | 1.27
87 | L15Y | 2.1
88 | L15K | 3.15
89 | L15Q | 1.78
90 | L15R | 3.45
91 | L15D | 1.87
92 | L15F | 2.16
93 | L15P | 1.76
94 | S17I | 2.17
95 | S17C | 1.56
96 | S17W | 3.17
97 | S17D | 2.9
98 | S17K | 2.51
99 | S17A | 2.14
100 | S17N | 1.69

Row | Variant | protein stability index
101 | S17T | 2.65
102 | S17Q | 2.03
103 | S17G | 2.6
104 | S17R | 2.42
105 | S17V | 1.94
106 | S17M | 2.25
107 | S17P | 1.9
108 | S17E | 2.78
109 | S17H | 1.85
110 | S17L | 3.44
111 | S17Y | 2.38
112 | S17F | 2.25
113 | L11T | 2.16
114 | L11V | 1.99
115 | L11W | 2.85
116 | L11S | 2.03
117 | L11Y | 3.19
118 | L11R | 3.19
119 | E24K | 3.2
120 | E24N | 1.91
121 | E24M | 2.78
122 | E24R | 2.96
123 | E24I | 2.65
124 | E24A | 2.02
125 | E24H | 1.85

Row | Variant | protein stability index
126 | E24S | 1.97
127 | E24T | 2.35
128 | E24L | 2
129 | E24G | 1.76
130 | E24D | 1.94
131 | E24Y | 2.42
132 | E24F | 2.32
133 | E24C | 1.65
134 | E24V | 2.11
135 | E24P | 1.93
136 | E24W | 1.84
137 | E24Q | 2.51
138 | R13W | 1.93
139 | R13L | 1.79
140 | R13C | 1.47
141 | R13V | 1.88
142 | R13H | 1.98
143 | R13I | 1.88
144 | R13A | 2.8
145 | R13E | 2.14
146 | R13K | 2.08
147 | R13Y | 2.1
148 | R13P | 2.12
149 | R13G | 1.81
150 | R13N | 2.13

Row | Variant | protein stability index
151 | R13T | 1.99
152 | R13M | 1.99
153 | R13S | 1.36
154 | R13Q | 2.72
155 | R13F | 1.73
156 | H14I | 1.78
157 | H14T | 2.28
158 | H14L | 2.62
159 | H14K | 2.2
160 | H14Y | 1.98
161 | H14P | 2.1
162 | H14W | 1.74
163 | H14R | 2.32
164 | H14A | 2.3
165 | H14M | 1.99
166 | H14N | 2.16
167 | H14F | 1.68
168 | H14Q | 2.51
169 | H14C | 2.17
170 | H14D | 2.13
171 | H14S | 2.2
172 | H14V | 2.33
173 | H14G | 2.76
174 | H14E | 2.33
175 | H19A | 2.74

Row | Variant | protein stability index
176 | H19E | 2.21
177 | H19P | 2.11
178 | H19Y | 2.5
179 | H19S | 2.29
180 | H19M | 1.73
181 | H19D | 2.03
182 | H19R | 2.68
183 | H19G | 2.14
184 | H19Q | 2.2
185 | H19V | 3.03
186 | H19C | 2.7
187 | H19W | 2.14
188 | H19L | 2.53
189 | H19T | 2.14
190 | H19I | 2.3
191 | H19K | 2.54
192 | H19N | 1.58
193 | H19F | 2.84
194 | W12R | 3.35
195 | W12I | 2.07
196 | W12G | 1.64
197 | W12F | 2.1
198 | W12N | 2.3
199 | W12P | 2.14
200 | W12H | 2.16

Row | Variant | protein stability index
201 | W12Q | 2.72
202 | W12E | 3.17
203 | W12V | 2.44
204 | W12Y | 2.63
205 | W12S | 2.61
206 | W12M | 1.84
207 | W12L | 2.24
208 | W12A | 3.38
209 | W12T | 2.54
210 | W12D | 2.92
211 | W12C | 1.45
212 | W12K | 3.18
213 | A18P | 3.65
214 | A18D | 2.02
215 | A18R | 3.02
216 | A18H | 2.04
217 | A18Y | 1.85
218 | A18K | 2.81
219 | A18S | 1.88
220 | A18Q | 2.61
221 | A18C | 1.79
222 | A18W | 1.63
223 | A18L | 2.79
224 | A18E | 3.1
225 | A18I | 2.12

Row | Variant | protein stability index
226 | A18T | 2.47
227 | A18F | 2.07
228 | A18M | 1.77
229 | A18N | 2.45
230 | A18V | 1.99
231 | A18G | 1.89
232 | E22H | 3.09
233 | E22W | 2.25
234 | E22Y | 1.47
235 | E22Q | 1.72
236 | E22F | 2.43
237 | E22L | 2.4
238 | E22I | 1.95
239 | E22S | 2.17
240 | E22A | 2.76
241 | E22T | 2.23
242 | E22C | 2.08
243 | E22R | 2.38
244 | E22P | 1.77
245 | E22D | 2.06
246 | E22N | 1.95
247 | E22M | 2.38
248 | E22V | 2.44
249 | E22K | 1.97

Variants of: B2
Experiment: as above
Conditions: c terminus: a fixed tail appended

Row | Variant | protein stability index
250 | K1A | 3.11
251 | K1G | 3.22
252 | K1V | 2.78
253 | K1F | 1.69
254 | K1W | 1.98
255 | K1R | 2.42
256 | K1P | 1.97
257 | K20S | 2.64
258 | K20W | 2.07
259 | H12N | 2.62
260 | H12E | 3.38
261 | H12S | 3.17
262 | H12T | 2.82
263 | T11E | 2.83
264 | T11M | 2.91
265 | T11G | 2.64
266 | T11C | 2.28
267 | H3M | 2.46
268 | H3K | 2.83
269 | H3L | 2.6
270 | H3S | 2.58
271 | H3A | 2.54

Row | Variant | protein stability index
272 | V13T | 2.66
273 | V13I | 2.51
274 | V13C | 2.49
275 | V13H | 3.78
276 | V13D | 3.88
277 | Q9H | 2.54
278 | Q9N | 3.18
279 | W7A | 3.39
280 | W7P | 3.21
281 | W7M | 3.61
282 | L8R | 2.98
283 | L8D | 3.17
284 | L8K | 2.98
285 | W16L | 3.02
286 | W16E | 3.77
287 | W16D | 3.53
288 | W16N | 3.39
289 | K18M | 2.42
290 | K18G | 2.53
291 | K18T | 2.52
292 | K18V | 2.14
293 | K21F | 1.8

Row | Variant | protein stability index
294 | K21D | 2.73
295 | I23W | 2.3
296 | I23G | 2.96
297 | I23M | 2.91
298 | N22G | 2.7
299 | N22S | 1.97
300 | V4N | 3.44
301 | V4P | 2.85
302 | P5Y | 1.94
303 | P5Q | 1.45
304 | P5R | 1.95
305 | P5G | 2.38
306 | P5E | 2.58
307 | P5H | 2.06
308 | P5D | 3.08
309 | L24S | 2.51
310 | L24T | 3.18
311 | L24V | 2.47
312 | L24Q | 2.98
313 | L24K | 3.49
314 | N19E | 2.72
315 | N19D | 3.03

Row | Variant | protein stability index
316 | N19S | 2.61
317 | N19G | 2.56
318 | S15P | 2.7
319 | S15F | 1.97
320 | S15L | 2.22
321 | E2I | 1.58
322 | E2L | 1.67
323 | E2A | 1.94
324 | P17S | 2.81
325 | N10C | 2.07
326 | N10S | 2.66
327 | T6G | 2.81
328 | T6P | 3.07
329 | T6H | 2.29
330 | T6D | 2.71
331 | T6V | 2.17
332 | Y14L | 2.29
333 | Y14F | 2.05
334 | Y14D | 3
